# Measured values published in patent US9682130B2 (priority 2015, dated 2017).
# Several values for one entry are separate records, joined by “and”; a condition that tells them apart may be missing. Identical values can stand only once.
# What was measured:
# [1] = test system: MA-104 cells; assay: Toxicity in uninfected wells (CC50); conditions: for Yield Reduction Assay CC50: yield reduction columns
# [2] = test system: NFκB; conditions: small in vitro study; cited from earlier work
# [3] = test system: Human Adenovirus 8 (Ad8 strain 13306); assay: Neutral red lysosomal uptake assay, Adenovirus 8; assay type: cell-based; conditions: Adenovirus 8, MA-104 cells
# Description: To assess in vitro cytotoxicity, both a cytopathic effects of a virus (CPE) regression assay and a neutral red lysosomal uptake cell viability assay was performed essentially as described in, e.g., Repetto, et al., Neutral Red Uptake Assay for the Estimation of Cell Viability/Cytotoxicity, Nat. Protoc. 3: 1125-1131 (2008), the content of which is hereby incorporated by reference in its entirety. Ninety-six-well plates were seeded with MA-104 cells at 1×10^5 cells/mL and incubated overnight at 37° C. with 5% CO2. […] Each dilution was added to 5 wells of a 96-well plate with 80% to 100% confluent cells, and three wells of each dilution were then infected with one of the two test viruses. Two wells remained uninfected as controls for toxicity. Six wells per plate were set aside as uninfected, untreated cell controls, and six wells per plate were infected with no treatment as virus controls. […] Assay plates were incubated at 37° C. with 5% CO2. […] After CPE reduction assay was completed, a neutral red lysosomal uptake assay was conducted by filling each well with 0.011% (m/v) neutral red, a vital stain. The plates then were incubated for about 2 hours at 37° C. in the dark. […] The plates were then read on a spectrophotometer at 540 nm to quantify the neutral red taken up by the healthy cells. […]
# [4] = test system: A549 cells; assay: In vitro cytotoxicity, ALAMARBLUE fluorometric stain; assay type: cell-based; conditions: 2 days
# Description: Ophthalmol. Vis. Sci. 50: 5295-5299 (2009), which is hereby incorporated by reference in its entirety.
# To assess in vitro cytotoxicity, 96-well plates were seeded with A549 cells at 1×10^5 cells/mL and incubated overnight at 37° C. with 5% CO2. […] After removal of the tissue culture media, 100 μL of each dilution was added to 3 wells of a 96-well plate with 80% to 100% confluent cells. […] Each test and control treatment was incubated on the A549 monolayers for 2 days at 37° C. with 5% CO2. A 100 μL aliquot of the fluorometric stain was then added to each well, and the cells incubated for 1 hour at 37° C. with 5% CO2. The fluorometric stain (ALAMARBLUE®, Invitrogen, Carlsbad, Calif.) acts as a redox indicator that is reduced to a fluorescent form by metabolically active living cells. Fluorescence was then be read with a plate reader (Biotek Synergy 2; Biotek), with a 500/27-nm excitation filter and a 620/40-nm emission filter, at a sensitivity of 35.
# [5] = Eye irritation, Draize scale (MMTS), Ad5/NZW rabbit ocular model; assay type: in vivo; conditions: for Ocular irritation MMTS score, Day 3 / Ocular irritation MMTS score, Day 9 / Ocular irritation class, Day 3 / Ocular irritation class, Day 9: topical both eyes 8x daily
# Description: To conduct this in vivo assay, 25 NZW rabbit were anesthetized using the general anesthesia ketamine and xylazine and the topical anesthesia proparacaine. Each rabbit was then topically inoculated with 50 μL of Adenovirus serotype Ad5 (3×10^7 pfu/mL) in both eyes after corneal epithelial scarification (12 cross-hatched strokes of a 25 sterile needle). Eyes were closed and gently rubbed for 5 seconds to ensure contact of the virus on all ocular surfaces. Inoculation of both eyes allowed for the reduction in the number of animals needed without jeopardizing statistical validity. […] All topical solutions (37 μL drops) were instilled with an electronic pipette (EDP; Rainin, Oakland, Calif.) set in the multi-dispense mode. Ocular swabbing to recover adenovirus from tear film and corneal and conjunctival surfaces, after topical anesthesia with proparacaine, was performed at least 1 hour after the final dose on days 0, 1, 3, 4, 5, 7, 9, 11, and 14 after inoculation. The ocular samples from each eye was placed individually into tubes containing 1 mL of medium and were frozen at −70° C. pending viral plaque assay.
# The animals were assayed for eye irritation using a Draize scale for ocular lesions. Classification of eye irritation was evaluated for both eyes of each rabbit on day 3 and day 9 using the maximum mean total score (MMTS; Table 4). See, e.g., Kay and Calandra, Interpretation of Eye Irritation Tests, J. Soc. Cos. Chem. 13: 281-289 (1962), the content of which is hereby incorporated by reference in its entirety. The MMTS score used was as follows: 0.0-0.5, Non-Irritating (N); 0.6-2.5, Practically Non-Irritating (PN); 2.6-15.0, Minimally Irritating (M1); 15.1-25.0, Mildly Irritating (M2); 25.1-50.0, Moderately Irritating (M3); 50.1-80.0, Severely Irritating (S); 80.1-100.0, Extremely Irritating (E); and 100.1-110.0, Maximally Irritating (Mx).
# [6] = test system: HIV-1; conditions: final concentrations that are not cytotoxic; cited from earlier work
molecule,measurement,setting,value
"Ranpirnase (protein, UniProt P22069 1-104, looked up, amphibian ribonuclease originally isolated from oocytes and/or early embryos of Rana pipiens; pancreatic ribonuclease (RNase A) superfamily, about 12 kD) Protein P-30: QDWLTFQKKHITNTRDVDCDNIMSTNLFHCKDKNTFIYSRPEPVKAICKGIIASKNVLTTSEFYLSDCNVTSRPCKYKLKKSTNKFCVTCENQAPVHFVGVGSC",Neutral Red Assay CC50,[1]; Adenovirus 5 section,52 µg/mL
same,Yield Reduction Assay CC50,[1]; Adenovirus 5 section,52 µg/mL
same,CPE Reduction Assay CC50,"[1]; Adenovirus 8 section, CPE scoring",59 µg/mL
same,Neutral Red Assay CC50,[1]; Adenovirus 8 section,44 µg/mL
same,Yield Reduction Assay CC50,[1]; Adenovirus 8 section,59 µg/mL
same,Translocation of NFκB into the nucleus,[2],inhibits translocation of NFκB into the nucleus
same,Neutral Red Assay EC50,[3],<100 µg/mL
same,"% cytotoxicity, Mean","[4]; 0.001 μM, second experiment",3.2%
same,% cytotoxicity,"[4]; 0.001 μM, second experiment, single assays 1-3, 0.001 µM",5.7% and 2.3% and 1.6%
same,"% cytotoxicity, Mean","[4]; 0.01 μM, second experiment",7.4%
same,% cytotoxicity,"[4]; 0.01 μM, second experiment, single assays 1-3, 0.01 µM",8.6% and 11.7% and 7.9%
same,"% cytotoxicity, Mean","[4]; 0.1 μM, second experiment",5.8%
same,% cytotoxicity,"[4]; 0.1 μM, second experiment, single assays 1-3, 0.1 µM",6.0% and 5.3% and 6.1%
same,% cytotoxicity,"[4]; 1.0 μM, first experiment, single assays 1-3, 1 µM",60.9% and 61.3% and 63.7%
same,% cytotoxicity,"[4]; 1.0 μM, second experiment, single assays 1-3, 1 µM",11.1% and 14.6% and 18.1%
same,% cytotoxicity,"[4]; 10 μM, first experiment, single assays 1-3, 10 µM",65.7% and 66.5% and 67.1%
same,% cytotoxicity,"[4]; 10 μM, second experiment, single assays 1-3, 10 µM",29.1% and 32.7% and 37.3%
same,% cytotoxicity,"[4]; 50 μM, first experiment, single assays 1-3, 50 µM",75.1% and 74.0%
same,% cytotoxicity,"[4]; 50 μM, second experiment, single assays 1-3, 50 µM",86.7% and 86.4%
same,Eye irritation compared to saline and Cidofovir controls,[5]; 0.25 μM Ranpirnase,no eye irritation as compared to both the saline and Cidofovir controls
same,"Ocular irritation MMTS score, Day 3",[5]; 0.25 μM Ranpirnase (group 1C),7.5
same,"Ocular irritation MMTS score, Day 9",[5]; 0.25 μM Ranpirnase (group 1C),22.5
same,"Ocular irritation class, Day 3",[5]; 0.25 μM Ranpirnase (group 1C),"M1 (2.6-15.0, Minimally Irritating (M1))"
same,"Ocular irritation class, Day 9",[5]; 0.25 μM Ranpirnase (group 1C),"M2 (15.1-25.0, Mildly Irritating (M2))"
same,"Ocular irritation MMTS score, Day 3",[5]; 2.5 μM Ranpirnase (group 1B),14.6
same,"Ocular irritation MMTS score, Day 9",[5]; 2.5 μM Ranpirnase (group 1B),60.7
same,"Ocular irritation class, Day 3",[5]; 2.5 μM Ranpirnase (group 1B),"M1 (2.6-15.0, Minimally Irritating (M1))"
same,"Ocular irritation class, Day 9",[5]; 2.5 μM Ranpirnase (group 1B),"S (50.1-80.0, Severely Irritating (S))"
same,"Ocular irritation MMTS score, Day 3",[5]; 25 μM Ranpirnase (group 1A),22.0
same,"Ocular irritation MMTS score, Day 9",[5]; 25 μM Ranpirnase (group 1A),85.0
same,"Ocular irritation class, Day 3",[5]; 25 μM Ranpirnase (group 1A),"M2 (15.1-25.0, Mildly Irritating (M2))"
same,"Ocular irritation class, Day 9",[5]; 25 μM Ranpirnase (group 1A),"E (80.1-100.0, Extremely Irritating (E))"
same,Ocular toxicity compared to Saline and CDV controls,"[5]; 25, 2.5 and 0.25 μM Ranpirnase, Ad5/NZW rabbit ocular model",dose dependent ocular toxicity
same,Inhibition of replication of HIV-1,[6],up to 99.9%
